B1: myc-tagged Gα12 Gln^229Leu (myc-Gα12^QL) [not stated] / GST fusion of protein phosphatase-5 [not stated] (parent)
chain 1: MSGVVRTLSRCLLPAEAGARERRAGAARDAEREARRRSRDIDALLARERRAVRRLVKILLLGAGESGKSTFLKQMRIIHGREFDQKALLEFRDTIFDNILKGSRVLVDARDKLGIPWQHSENEKHGMFLMAFENKAGLPVEPATFQLYVPALSALWRDSGIREAFSRRSEFQLGESVKYFLDNLDRIGQLNYFPSKQDILLARKATKGIVEHDFVIKKIPFKMVDVGGLRSQRQKWFQCFDGITSILFMVSSSEYDQVLMEDRRTNRLVESMNIFETIVNNKLFFNVSIILFLNKMDLLVEKVKSVSIKKHFPDFKGDPHRLEDVQRYLVQCFDRKRRNRSKPLFHHFTTAIDTENIRFVFHAVKDTILQENLKDIMLQ
chain 2: MAMAEGERTECAEPPRDEPPADGALKRAEELKTQANDYFKAKDYENAIKFYSQAIELNPSNAIYYGNRSLAYLRTECYGYALGDATRAIELDKKYIKGYYRRAASNMALGKFRAALRDYETVVKVKPHDKDAKMKYQECNKIVKQKAFERAIAGDEHKRSVVDSLDIESMTIEDEYSGPKLEDGKVTISFMKELMQWYKDQKKLHRKCAYQILVQVKEVLSKLSTLVETTLKETEKITVCGDTHGQFYDLLNIFELNGLPSETNPYIFNGDFVDRGSFSVEVILTLFGFKLLYPDHFHLLRGNHETDNMNQIYGFEGEVKAKYTAQMYELFSEVFEWLPLAQCINGKVLIMHGGLFSEDGVTLDDIRKIERNRQPPDSGPMCDLLWSDPQPQNGRSISKRGVSCQFGPDVTKAFLEENNLDYIIRSHEVKAEGYEVAHGGRCVTVFSAPNYCDQMGNKASYIHLQGSDLRPQFHQFTAVPHPNVKPMAYANTLLQLGMM

Variants of: B1
Assay: GST pull-down (co-precipitation), immunoblot pulldown:load ratio
Conditions: with GST fusion of protein phosphatase-5; grade: ++; mean of two or more trials; parent: 100

Variant	percent of parent (% of myc-Gα12QL pulldown:load ratio)
chain 1 I352N D353A T354A E355I N356R I357S	> 60
chain 1 K316N G317A D318A P319I H320R R321S	> 60
chain 1 H346N H347A F348A T349I T350R A351S	> 60
chain 1 R28N D29A E31I E33S	> 60

Further lines, results first:

percent of parent (% of myc-Gα12QL pulldown:load ratio)	Variant
> 60	chain 1 R358N F359A V360A F361I H362R A363S
> 60	chain 1 V52N R53A R54A L55I V56R K57S
> 60	chain 1 R340N S341A K342A P343I L344R F345S
